In paper PMC6895263:
Substitutions are numbered along the chain they refer to. Where two headings read alike, the source gives them in different places.

Columns and labels:
ZBTB24 ZF4-8 [1] = molecular target: T1, ZBTB24 ZF4-8 (Mus musculus, UniProt Q80X44 375-519); test: X-ray crystallography
T1 sequence: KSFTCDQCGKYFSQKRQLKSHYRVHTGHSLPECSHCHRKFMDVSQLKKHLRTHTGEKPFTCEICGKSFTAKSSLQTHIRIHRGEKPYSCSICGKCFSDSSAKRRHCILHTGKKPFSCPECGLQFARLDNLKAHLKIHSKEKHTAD

GST-ZBTB24 ZF1-8 C382Y = molecular target: T2, GST-ZBTB24 ZF1-8 C382Y (Mus musculus, UniProt Q80X44 288-519, C382Y); test: EMSA
T2 sequence: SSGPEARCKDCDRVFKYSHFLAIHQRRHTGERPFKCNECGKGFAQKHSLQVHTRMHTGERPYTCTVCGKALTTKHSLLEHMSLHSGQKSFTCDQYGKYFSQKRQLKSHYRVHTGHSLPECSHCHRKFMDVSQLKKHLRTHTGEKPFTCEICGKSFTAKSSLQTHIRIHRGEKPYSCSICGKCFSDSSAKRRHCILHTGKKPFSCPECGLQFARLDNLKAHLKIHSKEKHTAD

GST-ZBTB24 ZF1-8 C407G = molecular target: T3, GST-ZBTB24 ZF1-8 C407G (Mus musculus, UniProt Q80X44 288-519, C407G); test: EMSA
T3 sequence: T2 sequence with Y95C, C120G

ZBTB24 ZF4-8 [2] = molecular target: T1, ZBTB24 ZF4-8; test: X-ray crystallography; remark: listed apart in the source

B1: TG oligo (6ML2) (dsDNA)
DNA 1: TTTAGCTGCCAGGACCTGCG
DNA 2: ACGCAGGTCCTGGCAGCTAA
binding result (ZBTB24 ZF4-8 [1]): binds

B2: EMSA probe with ZBTB24 motif (dsDNA)
DNA 1: TCCACTGCCAGGACCTTT
DNA 2: AAAAGGTCCTGGCAGTGG
binding result (GST-ZBTB24 ZF1-8 C382Y): no binding
binding result (GST-ZBTB24 ZF1-8 C407G): no binding

B3: TT oligo (6ML3) (dsDNA)
DNA 1: TTTAGCTTCCAGGACCTGCG
DNA 2: ACGCAGGTCCTGGAAGCTAA
binding result (ZBTB24 ZF4-8 [1]): binds

B4: GT oligo (6ML4) (dsDNA)
DNA 1: TGCTTCGTCCAGGACCTGCG
DNA 2: ACGCAGGTCCTGGACGAAGC
binding result (ZBTB24 ZF4-8 [2]): binds
